Data as given in patent US20160130351A1 (NOVIMMUNE S A, published 2016).

T1: soluble cynomolgus monkey IL-6R (cynomolgus monkey, UniProt A0A2K5WN54 60-396)
T1 construct: extracellular domain; also called scyIL-6R; soluble cynomolgus monkey IL-6 Receptor; not shown: C-terminal His- or Avi-Tag
T1 sequence: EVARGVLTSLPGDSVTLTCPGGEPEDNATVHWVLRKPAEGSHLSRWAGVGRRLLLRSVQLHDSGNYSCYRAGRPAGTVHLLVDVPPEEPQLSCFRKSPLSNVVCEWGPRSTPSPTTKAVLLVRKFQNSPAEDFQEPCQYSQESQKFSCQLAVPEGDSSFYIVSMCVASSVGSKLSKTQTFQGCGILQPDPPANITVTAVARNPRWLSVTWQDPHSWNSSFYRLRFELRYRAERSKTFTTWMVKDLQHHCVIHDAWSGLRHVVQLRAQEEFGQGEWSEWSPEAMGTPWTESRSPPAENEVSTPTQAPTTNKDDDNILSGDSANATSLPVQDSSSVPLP

T2: carrier-free soluble human IL-6R (R&D) (human, UniProt P08887 20-365)
T2 construct: extracellular domain; also called shuIL-6R; shuIL6-R
T2 sequence (looked up): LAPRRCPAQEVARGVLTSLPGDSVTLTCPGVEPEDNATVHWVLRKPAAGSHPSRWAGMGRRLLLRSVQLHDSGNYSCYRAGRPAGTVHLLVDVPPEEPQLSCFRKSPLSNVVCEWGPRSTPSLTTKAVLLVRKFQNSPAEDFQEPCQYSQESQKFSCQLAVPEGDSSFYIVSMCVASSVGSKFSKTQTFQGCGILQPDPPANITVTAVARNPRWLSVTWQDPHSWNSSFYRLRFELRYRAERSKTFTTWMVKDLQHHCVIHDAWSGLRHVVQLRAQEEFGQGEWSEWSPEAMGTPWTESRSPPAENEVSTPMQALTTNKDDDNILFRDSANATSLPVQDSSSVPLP


How the values were obtained:
Assay in all cases: SPR (Biacore 2000), mAb captured on anti-human IgG Fc, analyte in solution, 25 C, 1:1 Langmuir
[1] = target: soluble human IL-6Rc (shuIL-6Rc) recombinant fusion protein of IL-6R and IL-6 (human) (UniProt P08887)
[2] = target: T1, soluble cynomolgus monkey IL-6R
Protocol: (§1) A CM5 Biacore chip was used and 1640 RU (response units) of an anti-human IgG Fc (Biacore AB, Uppsala, Sweden) was immobilized by EDC/NHS chemistry. […] The surface was regenerated after each cycle by injection of 3M magnesium chloride at 20 μL/min, for 30 s followed by lmin of stabilization time in HBS-EP buffer (Biacore AB, Uppsala, Sweden). Binding was measured by passing analytes carrier-free soluble human IL-6R (shuIL6-R; R&D), soluble human IL-6Rc (shuIL-6Rc) and soluble cynomolgus monkey IL-6R (scyIL-6R) in duplicates at the following concentrations: 100 nM, 50 nM, 25 nM, 12.5 nM, 6.25 nM and 0nM. All solutions were diluted in HBS-EP buffer. Injection was performed at 50 μl/min for 3 min followed by 12 min of dissociation time and the temperature was set at 25° C.

[3] = target: T2, carrier-free soluble human IL-6R (R&D)
Protocol: as §1

| Kd [1] | koff [1] | kon [1] | Kd [2] | koff [2] | kon [2] | Kd [3] | koff [3] | kon [3] | Binder |
| --- | --- | --- | --- | --- | --- | --- | --- | --- | --- |
| 4.92 nM | 0.000246 s⁻¹ | 50100 M⁻¹ s⁻¹ | 2.05 nM | 0.000213 s⁻¹ | 104000 M⁻¹ s⁻¹ | 0.121 nM | 0.00011 s⁻¹ | 829000 M⁻¹ s⁻¹ | NI-1201-A antibody (antibody, V domains shown) VH: QVQLVQSGAEVKKPGSSVKVSCKASGGTFSSYAISWVRQAPGQGLEWMGGIIPLFDTTKYAQKFQGRVTITADESTSTAYMELSSLRSEDTAVYYCARDRDILTDYYPMGGMDVWGQGTTVTVSS VL: AIQLTQSPSSLSASVGDRVTITCRASQGISSVLAWYQQKPGKAPKLLIYDASSLESGVPSRFSGSGSGTDFTLTISSLQPEDFATYYCQQSNSYPLTFGGGTKVEIKR |
| 4.43 nM | 0.000237 s⁻¹ | 53400 M⁻¹ s⁻¹ | 1.81 nM | 0.000207 s⁻¹ | 115000 M⁻¹ s⁻¹ | 0.107 nM | 9.4e-05 s⁻¹ | 875000 M⁻¹ s⁻¹ | NI-1201-B antibody (antibody, V domains shown) VH: QVQLVQSGAEVKKPGSSVKVSCKASGGTFSSYAISWVRQAPGQGLEWMGGIIPLFDTTKYAQKFQGRVTITADESTSTAYMELSSLRSEDTAVYYCARDRDILTDYYPLGGMDVWGQGTTVTVSS VL: AIQLTQSPSSLSASVGDRVTITCRASQGISSVLAWYQQKPGKAPKLLIYDASSLESGVPSRFSGSGSGTDFTLTISSLQPEDFATYYCQQSNSYPLTFGGGTKVEIKR |
| 4.89 nM | 0.000222 s⁻¹ | 45300 M⁻¹ s⁻¹ | 1.79 nM | 0.0002 s⁻¹ | 112000 M⁻¹ s⁻¹ | 0.134 nM | 0.000102 s⁻¹ | 761000 M⁻¹ s⁻¹ | NI-1201-D antibody (antibody, V domains shown) VH: QVQLVQSGAEVKKPGSSVKVSCKASGGTFSSYAISWVRQAPGQGLEWMGGIIPAFETTKYAQKFQGRVTITADESTSTAYMELSSLRSEDTAVYYCARDRDILTDYYPLGGMDVWGQGTTVTVSS VL: AIQLTQSPSSLSASVGDRVTITCRASQGISSVLAWYQQKPGKAPKLLIYDASSLESGVPSRFSGSGSGTDFTLTISSLQPEDFATYYCQQSQSYPLTFGGGTKVEIKR |
| 5.03 nM | 0.00024 s⁻¹ | 47700 M⁻¹ s⁻¹ | 2.03 nM | 0.000225 s⁻¹ | 111000 M⁻¹ s⁻¹ | 0.11 nM | 0.00011 s⁻¹ | 992000 M⁻¹ s⁻¹ | NI-1201-C antibody (antibody, V domains shown) VH: QVQLVQSGAEVKKPGSSVKVSCKASGGTFSSYAISWVRQAPGQGLEWMGGIIPAFETTKYAQKFQGRVTITADESTSTAYMELSSLRSEDTAVYYCARDRDILTDYYPLGGMDVWGQGTTVTVSS VL: AIQLTQSPSSLSASVGDRVTITCRASQGISSVLAWYQQKPGKAPKLLIYDASSLESGVPSRFSGSGSGTDFTLTISSLQPEDFATYYCQQSNSYPLTFGGGTKVEIKR |
